Our source for the activity values is patent US20100291638.

Common to all, as to conditions: dNTP incorporation; background <500
Data set [1] relates to T1, DNA polymerase clone 2783GBS (uncultured hot spring virus (Great Boiling Spring)).
T1 sequence: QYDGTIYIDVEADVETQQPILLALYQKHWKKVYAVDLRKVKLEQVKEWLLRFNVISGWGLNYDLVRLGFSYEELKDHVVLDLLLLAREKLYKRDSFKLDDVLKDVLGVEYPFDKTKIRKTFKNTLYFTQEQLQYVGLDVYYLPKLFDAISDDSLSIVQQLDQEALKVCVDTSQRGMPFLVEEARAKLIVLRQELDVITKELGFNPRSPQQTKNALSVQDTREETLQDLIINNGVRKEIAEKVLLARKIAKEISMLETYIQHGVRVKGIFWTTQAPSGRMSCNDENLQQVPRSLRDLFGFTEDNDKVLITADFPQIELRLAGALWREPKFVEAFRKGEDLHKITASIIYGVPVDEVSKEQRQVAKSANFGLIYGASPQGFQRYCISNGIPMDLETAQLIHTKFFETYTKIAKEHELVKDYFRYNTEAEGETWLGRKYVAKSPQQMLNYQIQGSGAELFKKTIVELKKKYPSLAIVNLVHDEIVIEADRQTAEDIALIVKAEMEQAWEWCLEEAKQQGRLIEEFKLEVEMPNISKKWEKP

In data set [2] the test system is T2, DNA polymerase clone 1753 (uncultured hot spring virus (Great Boiling Spring)).
T2 sequence: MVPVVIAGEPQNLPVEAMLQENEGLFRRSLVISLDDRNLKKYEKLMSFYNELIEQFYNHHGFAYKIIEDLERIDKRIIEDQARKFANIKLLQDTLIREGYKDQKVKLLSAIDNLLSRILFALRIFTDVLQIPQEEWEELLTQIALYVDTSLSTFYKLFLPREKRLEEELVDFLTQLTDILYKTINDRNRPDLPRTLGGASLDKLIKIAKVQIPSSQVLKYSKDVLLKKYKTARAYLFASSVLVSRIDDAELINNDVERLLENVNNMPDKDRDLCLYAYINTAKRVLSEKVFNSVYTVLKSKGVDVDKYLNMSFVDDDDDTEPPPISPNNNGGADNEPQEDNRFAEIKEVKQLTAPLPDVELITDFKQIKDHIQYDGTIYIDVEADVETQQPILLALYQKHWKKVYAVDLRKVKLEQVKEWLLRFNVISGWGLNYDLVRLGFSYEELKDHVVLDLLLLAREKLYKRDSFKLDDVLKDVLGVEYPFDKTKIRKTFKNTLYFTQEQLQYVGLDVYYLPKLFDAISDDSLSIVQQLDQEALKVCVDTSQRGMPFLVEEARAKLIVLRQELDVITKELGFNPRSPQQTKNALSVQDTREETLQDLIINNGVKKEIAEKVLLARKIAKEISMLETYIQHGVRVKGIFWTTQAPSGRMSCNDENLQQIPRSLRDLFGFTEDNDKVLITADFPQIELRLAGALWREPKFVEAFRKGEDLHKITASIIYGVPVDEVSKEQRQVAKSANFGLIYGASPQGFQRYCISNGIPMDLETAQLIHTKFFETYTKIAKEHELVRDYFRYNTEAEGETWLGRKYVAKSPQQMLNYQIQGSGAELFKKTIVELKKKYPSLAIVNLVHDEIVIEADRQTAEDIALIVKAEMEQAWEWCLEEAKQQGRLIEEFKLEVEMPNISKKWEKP

Data set [3] deals with T3, DNA polymerase clone 1128 (uncultured hot spring virus (Great Boiling Spring)).
T3 sequence: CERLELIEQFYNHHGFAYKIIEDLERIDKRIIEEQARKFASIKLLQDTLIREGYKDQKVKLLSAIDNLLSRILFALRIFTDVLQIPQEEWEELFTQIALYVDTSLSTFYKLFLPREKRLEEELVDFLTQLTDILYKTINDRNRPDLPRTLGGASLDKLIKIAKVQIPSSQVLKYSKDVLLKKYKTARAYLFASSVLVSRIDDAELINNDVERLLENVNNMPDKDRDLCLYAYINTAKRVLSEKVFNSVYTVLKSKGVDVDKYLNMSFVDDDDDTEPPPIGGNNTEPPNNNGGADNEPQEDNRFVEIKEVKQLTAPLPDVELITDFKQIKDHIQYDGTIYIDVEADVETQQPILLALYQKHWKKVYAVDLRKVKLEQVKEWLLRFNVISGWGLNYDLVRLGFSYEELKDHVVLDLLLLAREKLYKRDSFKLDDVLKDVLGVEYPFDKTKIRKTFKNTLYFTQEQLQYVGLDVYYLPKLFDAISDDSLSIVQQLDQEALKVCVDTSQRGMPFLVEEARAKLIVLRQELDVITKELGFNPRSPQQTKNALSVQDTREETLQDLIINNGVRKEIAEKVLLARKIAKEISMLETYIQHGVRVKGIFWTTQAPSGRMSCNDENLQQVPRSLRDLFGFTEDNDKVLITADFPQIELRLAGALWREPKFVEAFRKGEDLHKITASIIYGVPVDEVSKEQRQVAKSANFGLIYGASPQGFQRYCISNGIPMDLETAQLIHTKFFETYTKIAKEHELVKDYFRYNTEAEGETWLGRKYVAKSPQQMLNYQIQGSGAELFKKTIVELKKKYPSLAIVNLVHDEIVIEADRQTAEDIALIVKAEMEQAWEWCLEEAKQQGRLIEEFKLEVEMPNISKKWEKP

The test system of data set [4] is T4, DNA polymerase clone 1937 (uncultured hot spring virus (Great Boiling Spring)).
T4 sequence: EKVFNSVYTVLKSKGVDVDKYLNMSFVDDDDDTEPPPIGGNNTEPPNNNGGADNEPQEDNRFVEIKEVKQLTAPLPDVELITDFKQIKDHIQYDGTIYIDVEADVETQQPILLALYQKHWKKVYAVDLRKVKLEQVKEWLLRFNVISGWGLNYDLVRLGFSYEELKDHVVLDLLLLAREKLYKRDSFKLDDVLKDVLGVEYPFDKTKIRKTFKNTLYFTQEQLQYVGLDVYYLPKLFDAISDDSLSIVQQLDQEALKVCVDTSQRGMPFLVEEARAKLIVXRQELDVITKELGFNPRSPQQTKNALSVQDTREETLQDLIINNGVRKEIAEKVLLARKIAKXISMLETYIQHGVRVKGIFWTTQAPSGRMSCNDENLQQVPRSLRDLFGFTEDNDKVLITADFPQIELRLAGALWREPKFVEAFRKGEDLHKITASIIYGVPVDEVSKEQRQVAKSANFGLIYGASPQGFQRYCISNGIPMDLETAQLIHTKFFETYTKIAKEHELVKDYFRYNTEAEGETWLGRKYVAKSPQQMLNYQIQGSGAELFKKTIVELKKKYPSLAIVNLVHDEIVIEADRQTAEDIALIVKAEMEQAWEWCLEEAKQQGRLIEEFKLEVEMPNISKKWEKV

Take activated calf thymus DNA: the activity in data set [1] worked out at 11500 cpm; in data set [2] it was 141000 cpm; in data set [3], 16400 cpm; in data set [4] it was 70300 cpm.
